In patent US20090187998A1:

Molecular target: wild-type serum response factor (SRF) in mouse heart (mouse) (UniProt Q9JM73)
Test: cell-based or functional assay

Chain of UniProt Q9JM73 (Q9JM73 whole entry): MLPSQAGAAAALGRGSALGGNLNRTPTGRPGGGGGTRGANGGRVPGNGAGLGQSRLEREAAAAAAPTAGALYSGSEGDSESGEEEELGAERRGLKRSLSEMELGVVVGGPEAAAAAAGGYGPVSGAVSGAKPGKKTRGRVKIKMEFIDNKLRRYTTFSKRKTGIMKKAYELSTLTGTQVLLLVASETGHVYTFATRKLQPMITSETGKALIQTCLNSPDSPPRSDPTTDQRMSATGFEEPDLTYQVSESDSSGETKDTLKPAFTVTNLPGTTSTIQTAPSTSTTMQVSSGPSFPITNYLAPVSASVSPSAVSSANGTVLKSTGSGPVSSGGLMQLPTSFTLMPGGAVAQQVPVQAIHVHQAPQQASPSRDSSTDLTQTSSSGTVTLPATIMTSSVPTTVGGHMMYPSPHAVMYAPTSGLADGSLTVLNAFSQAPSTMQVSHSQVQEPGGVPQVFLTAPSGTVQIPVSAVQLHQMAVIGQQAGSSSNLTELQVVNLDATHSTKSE

EMSA: binding of SRF in heart protein lysate to the biotin-labeled wild-type SRE probe (Mild-R SRF Tg vs Non-Tg): 47 % reduced
Substance: dominant negative mutant form of human SRF (Thr->Ser at position 159 and Lys->Glu at position 163 of SRF) (from UniProt P11831 1-508)
